Source: US20210332115A1 (Sanofi, published 2021)
Values joined by “and” are separate entries in the source; they are usually repeats but may differ in a detail not shown here. Identical values can stand only once.

Columns and labels:
[1] = target: T1, Homo sapiens factor Bb protein (human, UniProt P00751 260-764); test: BLI Octet, biotinylated antibody on SA biosensors
T1 construct: Bought from CompTech (A155); also called complement factor Bb; human factor Bb
Experimental: Briefly, biotinylated antibodies were loaded onto SA Biosensors equilibrated in PBS, 0.1% BSA, 0.02% Tween-20 (assay buffer). After a 60 second baseline in assay buffer, antibodies were loaded onto the probes for 180 seconds, followed by another 60 second baseline. Association to human (Comptech) or cynomolgus monkey factor Bb (purified in-house) was measured for 300 seconds, followed by a 300 second dissociation. Kinetic parameters were calculated by the Octet Analysis software using a 1:1 binding model.
To determine whether the modification of the Fc portion of the antibodies affected affinity and species cross-reactivity, VH4/VK6-IgG4v2 and VH6/VK7-IgG4v2 were tested alongside their parental antibodies, VH4/VK6 and VH6/VK7, respectively, for their ability to bind human and cynomolgus monkey factor Bb by BLI. VH4/VK6-IgG4v2 and VH6/VK7-IgG4v2 contain mutations in the Fc region that increase the affinity for an Fc receptor.

[2] = target: T1, Homo sapiens factor Bb protein; test: SPR single cycle kinetics; against cynomolgus monkey factor Bb
Experimental: The ability of VH4/VK6 and VH6/VK7 to bind to zymogen factor B and factor Bb from both human and cynomolgus monkey was determined by surface plasmon resonance using a Biacore T200. Human factor B and factor Bb were purchased from Comptech and cynomolgus monkey factor B and factor Bb were purified in-house. Briefly, the monoclonal antibodies were captured on a Biacore Series S Protein A chip in HBSP+ (10 mM HEPES, 150 mM NaCl, 0.05% P20 pH 7.4) at a flow rate of 30 μL/min. A five-point concentration series of each analyte was tested for binding using single cycle kinetics with a contact time of 180 seconds per concentration followed by a 600 sec dissociation at 25° C. and a flow rate of […]. Both human and cynomolgus monkey factor B started at a concentration of 500 nM followed by 2-fold dilutions, while human and cynomolgus monkey factor Bb started at concentrations of 30 nM and 150 nM, respectively, followed by 2-fold dilutions. Data were analyzed using the Biacore evaluation software using a 1:1 binding model. […] Binding to human or cynomolgus monkey factor B was barely detectable and the small signal that was observed was dominated by non-specific binding.

[3] = target: T1, Homo sapiens factor Bb protein; test: cell-based or functional assay
[4] = target: T1, Homo sapiens factor Bb protein; test: SPR single cycle kinetics, IgG on Protein A chip, factor Bb analyte
Experimental: In order to assess the binding of all humanized variants, single cycle kinetic analysis was performed on supernatants from transfected cell cultures. […] All single cycle kinetic experiments were run at 25° C. with HBS-P+running buffer (pH 7. 4) (GE Healthcare, Little Chalfont, UK).
Antibodies were diluted in running buffer to a final concentration of 1 μg/ml, based on concentrations assessed by ELISA titer. At the start of each cycle, antibodies were loaded onto Fc2, Fc3 and Fc4 of the Protein A chip (GE Healthcare, Little Chalfont, UK). IgGs were captured at a flow rate of 10 μl/min to give an immobilization level (RL) of ˜63 RU, the theoretical value to obtain an Rmax of ˜50 RU. The surface was then allowed to stabilize. Single cycle kinetic data was obtained with factor Bb (CompTech, Tyler, USA) as the analyte at a flow rate of 30 μl/min to minimize any potential mass transport limitations. Multiple repeats with the reference chimeric antibody were performed to check the stability of the surface and analyte over the kinetic cycles. The signal from the reference channel Fc1 (no antibody) was subtracted from that of Fc2, Fc3 and Fc4 to correct for differences in non-specific binding to a reference surface. A four point, two-fold dilution range from 0. 78 nM to 6. 25 nM factor Bb without regeneration between each concentration was used. The association phase for the four injections of increasing concentrations of factor Bb was monitored for 200 seconds each time and a single dissociation phase was measured for 200 seconds following the last injection of factor Bb. Regeneration of the Protein A surface was conducted using two injections of 10 mM glycine-HCL pH 1. 5.
The sensorgrams and fitted data for the single cycle kinetics are shown in FIGS. 1A-1D and the kinetic parameters measured for the interaction of factor Bb with each antibody are shown in Table 7. The relative KD was calculated by dividing the KD of the VH0/Vκ0 reference antibody by that of the humanized variant assayed in the same experiment.

[5] = target: T1, Homo sapiens factor Bb protein; test: SPR multi-cycle kinetics, IgG on Protein A chip, factor Bb analyte
Experimental: Antibodies were diluted in running buffer to a final concentration of 0.5 μg/ml. At the start of each cycle, antibodies were loaded onto Fc2, Fc3 and Fc4 of the Protein A chip (GE Healthcare, Little Chalfont, UK). IgGs were captured at a flow rate of 10 μl/min to give an immobilisation level (RL) of ˜63 RU, the theoretical value to obtain an Rmax of ˜50 RU. The surface was then allowed to stabilize. Kinetic data was obtained with factor Bb as analyte and using a flow rate of 30 μl/min to minimize any potential mass transfer effects. Multiple repeats of a blank and a repeat of a single concentration of the analyte were programmed into the kinetic run in order to check the stability of both the surface and analyte over the kinetic cycles. For kinetic analysis, a two-fold dilution range was selected from 12. 5 nM to 0. 391 nM factor Bb. The association phase of factor Bb was monitored for 360 seconds and the dissociation phase was monitored for 600 seconds. Regeneration of the Protein A surface was conducted using two injections of 10 mM glycine-HCL pH 1. 5. The signal from the reference channel Fc1 was subtracted from that of Fc2, Fc3 and Fc4 to correct for differences in non-specific binding to a reference surface, and a global Rmax parameter was used in the 1-to-1 binding model.
The sensorgrams and fitted data for the binding of chimeric antibodies and humanized variants to factor Bb are shown in FIGS. 4A-4C. The relative KD was calculated by dividing the KD of the humanized variants by that of the chimeric antibody on the same chip. The kinetic parameters measured for the interaction of factor Bb with chimeric antibodies and humanized variants are shown in Table 10.

T1 sequence (P00751 260-764 limits assumed): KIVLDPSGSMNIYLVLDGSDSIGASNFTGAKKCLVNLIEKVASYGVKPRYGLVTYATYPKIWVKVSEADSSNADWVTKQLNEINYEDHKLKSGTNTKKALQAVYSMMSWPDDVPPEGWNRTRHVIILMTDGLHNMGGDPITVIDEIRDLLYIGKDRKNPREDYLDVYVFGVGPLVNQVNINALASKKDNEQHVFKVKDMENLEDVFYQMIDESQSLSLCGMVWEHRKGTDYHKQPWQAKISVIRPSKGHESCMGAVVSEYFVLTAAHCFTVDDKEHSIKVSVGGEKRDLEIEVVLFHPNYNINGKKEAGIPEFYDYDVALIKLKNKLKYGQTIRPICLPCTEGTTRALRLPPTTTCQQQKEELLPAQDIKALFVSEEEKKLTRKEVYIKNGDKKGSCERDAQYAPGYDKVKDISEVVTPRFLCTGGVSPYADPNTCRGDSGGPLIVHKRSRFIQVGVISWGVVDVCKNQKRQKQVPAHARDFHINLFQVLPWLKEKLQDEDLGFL

| Binder | Kd [1] [nM] | fold higher affinity for human factor Bb compared to cynomolgus monkey factor Bb [2] [fold] | AP Assay IC50 [3] [nM] | Kd [4] [nM] | koff [4] [s⁻¹] | kon [4] [M⁻¹ s⁻¹] | Kd [5] | koff [5] | kon [5] |
| --- | --- | --- | --- | --- | --- | --- | --- | --- | --- |
| VH6/Vκ7-IgG4v2 (antibody, also called VH6/VK7-IgG4v2; VH6/VK7-IgG4v2_HEK) heavy: not shown light: DIQMTQSPSTLSASVGDRVTITCKASQDVGTAVAWYQQKPGKAPKLLIYWASTRHTGVPDRFSGSGSGTDFTLTISSLQAEDFAVYFCHQHSSNPLTFGQGTKLEIKRTVAAPSVFIFPPSDEQLKSGTASVVCLLNNFYPREAKVQWKVDNALQSGNSQESVTEQDSKDSTYSLSSTLTLSKADYEKHKVYACEVTHQGLSSPVTKSFNRGEC | 1.7 | ~10 |  |  |  |  |  |  |  |
| VH0/Vκ0 (Chimeric) (antibody, V domains shown, also called chimeric antibody) VH: EVQLVESGGALVKPGGSLKLSCAASGFTFSNYAMSWVRQTPEKRLEWVATISNRGSYTYYPDSVKGRFTISRDNAKNTLYLQMSSLRSEDTALYYCARERPMDYWGQGTSVTVSS VL: DIVMTQSHKFMSTSVGDRVSITCKASQDVGTAVAWYQQKPGQSPKLLIYWASTRHTGVPDRFTGSGSGTDFTLTITNVQSEDLAVYFCHQHSSNPLTFGAGTKLELK |  |  | 24 | 1.76 | 0.00103 | 585000 | 1.99 nM and 1.91 nM and 1.9 nM | 0.000969 s⁻¹ and 0.000954 s⁻¹ and 0.00094 s⁻¹ | 487000 M⁻¹ s⁻¹ and 500000 M⁻¹ s⁻¹ and 495000 M⁻¹ s⁻¹ |
